Test results as given in PMC6020293, “In Vitro Reconstitution of Functional Type III Protein Export and Insights into Flagellar Assembly” (mBio, 2018).

Target: the molecule itself
Test: co-sedimentation; purified FlgE (4 µM) transported into inverted membrane vesicles with FlgD (0.6 or 4 µM), FliH2/FliI complex, FliJ and 5 mM ATP; after proteinase K and Triton X-100 centrifuged at 150,000 x g for 30 min; supernatant and precipitate immunoblotted; hook forms on the basal body inside the vesicle

B1: FlgE (natural protein)
chain: MSFSQAVSGLNAAATNLDVIGNNIANSATYGFKSGTASFADMFAGSKVGLGVKVAGITQDFTDGTTTNTGRGLDVAISQNGFFRLVDSNGSVFYSRNGQFKLDENRNLVNMQGMQLTGYPATGTPPTIQQGANPAPITIPNTLMAAKSTTTASMQINLNSTDPVPSKTPFSVSDADSYNKKGTVTVYDSQGNAHDMNVYFVKTKDNEWAVYTHDSSDPAATAPTTASTTLKFNENGILESGGTVNITTGTINGATAATFSLSFLNSMQQNTGANNIVATNQNGYKPGDLVSYQINNDGTVVGNYSNEQEQVLGQIVLANFANNEGLASQGDNVWAATQASGVALLGTAGSGNFGKLTNGALEASNVDLSKELVNMIVAQRNYQSNAQTIKTQDQILNTLVNLR
notes: FlgE, flagellar hook protein, Salmonella; also called hook protein FlgE
Does B1 bind?
Result: binds
